In patent publication US20100129369A1 (Eli Lilly, published 2010):

Legend:
PlexinA2-ECD-Fc [1] = target: T1, PlexinA2-ECD-Fc (human, UniProt O75051 35-1237); experiment: ELISA, coated ECD-Fc, antibody 0.060 ng/mL
T1 construct: extracellular domain; Bought reagent
T1 sequence (looked up): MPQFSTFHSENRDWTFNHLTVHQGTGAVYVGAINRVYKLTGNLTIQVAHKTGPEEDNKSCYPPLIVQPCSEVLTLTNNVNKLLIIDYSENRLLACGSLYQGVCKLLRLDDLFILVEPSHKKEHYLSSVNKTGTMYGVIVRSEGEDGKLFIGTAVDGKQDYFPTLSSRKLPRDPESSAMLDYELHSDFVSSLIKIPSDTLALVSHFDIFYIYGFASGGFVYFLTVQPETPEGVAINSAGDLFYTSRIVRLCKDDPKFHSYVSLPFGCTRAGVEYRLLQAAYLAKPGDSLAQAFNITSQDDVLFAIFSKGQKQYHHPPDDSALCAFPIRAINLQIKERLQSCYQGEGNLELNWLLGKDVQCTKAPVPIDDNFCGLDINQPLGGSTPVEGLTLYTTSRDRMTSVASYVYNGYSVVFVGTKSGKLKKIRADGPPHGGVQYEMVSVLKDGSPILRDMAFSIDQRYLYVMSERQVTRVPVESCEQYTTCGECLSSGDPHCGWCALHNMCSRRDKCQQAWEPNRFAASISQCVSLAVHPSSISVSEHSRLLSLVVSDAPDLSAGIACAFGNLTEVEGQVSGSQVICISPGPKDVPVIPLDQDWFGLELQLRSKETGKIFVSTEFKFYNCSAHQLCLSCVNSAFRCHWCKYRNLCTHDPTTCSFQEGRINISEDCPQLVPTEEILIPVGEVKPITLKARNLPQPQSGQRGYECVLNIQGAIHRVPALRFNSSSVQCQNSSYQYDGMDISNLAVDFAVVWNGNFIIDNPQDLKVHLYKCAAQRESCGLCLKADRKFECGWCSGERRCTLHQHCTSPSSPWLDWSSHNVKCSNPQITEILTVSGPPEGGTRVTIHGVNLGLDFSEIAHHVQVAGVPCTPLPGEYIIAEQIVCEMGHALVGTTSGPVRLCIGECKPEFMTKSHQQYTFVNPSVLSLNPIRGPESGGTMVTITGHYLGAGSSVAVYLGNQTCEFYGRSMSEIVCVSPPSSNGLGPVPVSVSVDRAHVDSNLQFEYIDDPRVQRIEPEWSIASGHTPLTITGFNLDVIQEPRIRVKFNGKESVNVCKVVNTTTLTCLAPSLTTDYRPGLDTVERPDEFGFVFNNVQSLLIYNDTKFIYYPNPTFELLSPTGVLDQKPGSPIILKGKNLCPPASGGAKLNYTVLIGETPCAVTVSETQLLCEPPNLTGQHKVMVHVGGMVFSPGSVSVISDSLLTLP
Protocol: (§1) Wells of 96-well EIA/RIA high binding plates (Costar, #2592) are coated with 100 μL of 1 μg/mL human c-Met extracellular domain (ECD)-Fc-Flis fusion (SEQ ID NO:72), RON-ECD-Fc (R&D Systems, #1947-MS), or PlexinA2-ECD-Fc (Abnova, Taipei, Taiwan #H00005362-P01) in coating buffer (BioFX Labs, # COAT-1000-01) overnight at 4° C. […] After the plates are washed, 100 μL/well of substrate solution (BioFx, #TMBW-1000-01) are added and the plates are incubated for 10 min. at room temperature. 100 μL/well of stop solution (BioFx, # LSTP-1000-01) are added to stop the reaction. The colorimetric signals are developed and read at 450 nm using a SpectraMax 190 plate reader (Molecular Devices, Sunnyvale, Calif.). c-Met antibody binding to c-Met, RON and PlexinA2 ECDs is proportional to color signal production.

Human c-Met-Flis-Fc ECD [2] = target: T2, Human c-Met-Flis-Fc ECD (human); experiment: ELISA, coated ECD-Fc, antibody 0.060 ng/mL
T2 construct: also called human c-Met extracellular domain (ECD)-Fc-Flis fusion; Human cMet-ECD-Fc-Flis
T2 sequence (chain, as listed by the source limits assumed): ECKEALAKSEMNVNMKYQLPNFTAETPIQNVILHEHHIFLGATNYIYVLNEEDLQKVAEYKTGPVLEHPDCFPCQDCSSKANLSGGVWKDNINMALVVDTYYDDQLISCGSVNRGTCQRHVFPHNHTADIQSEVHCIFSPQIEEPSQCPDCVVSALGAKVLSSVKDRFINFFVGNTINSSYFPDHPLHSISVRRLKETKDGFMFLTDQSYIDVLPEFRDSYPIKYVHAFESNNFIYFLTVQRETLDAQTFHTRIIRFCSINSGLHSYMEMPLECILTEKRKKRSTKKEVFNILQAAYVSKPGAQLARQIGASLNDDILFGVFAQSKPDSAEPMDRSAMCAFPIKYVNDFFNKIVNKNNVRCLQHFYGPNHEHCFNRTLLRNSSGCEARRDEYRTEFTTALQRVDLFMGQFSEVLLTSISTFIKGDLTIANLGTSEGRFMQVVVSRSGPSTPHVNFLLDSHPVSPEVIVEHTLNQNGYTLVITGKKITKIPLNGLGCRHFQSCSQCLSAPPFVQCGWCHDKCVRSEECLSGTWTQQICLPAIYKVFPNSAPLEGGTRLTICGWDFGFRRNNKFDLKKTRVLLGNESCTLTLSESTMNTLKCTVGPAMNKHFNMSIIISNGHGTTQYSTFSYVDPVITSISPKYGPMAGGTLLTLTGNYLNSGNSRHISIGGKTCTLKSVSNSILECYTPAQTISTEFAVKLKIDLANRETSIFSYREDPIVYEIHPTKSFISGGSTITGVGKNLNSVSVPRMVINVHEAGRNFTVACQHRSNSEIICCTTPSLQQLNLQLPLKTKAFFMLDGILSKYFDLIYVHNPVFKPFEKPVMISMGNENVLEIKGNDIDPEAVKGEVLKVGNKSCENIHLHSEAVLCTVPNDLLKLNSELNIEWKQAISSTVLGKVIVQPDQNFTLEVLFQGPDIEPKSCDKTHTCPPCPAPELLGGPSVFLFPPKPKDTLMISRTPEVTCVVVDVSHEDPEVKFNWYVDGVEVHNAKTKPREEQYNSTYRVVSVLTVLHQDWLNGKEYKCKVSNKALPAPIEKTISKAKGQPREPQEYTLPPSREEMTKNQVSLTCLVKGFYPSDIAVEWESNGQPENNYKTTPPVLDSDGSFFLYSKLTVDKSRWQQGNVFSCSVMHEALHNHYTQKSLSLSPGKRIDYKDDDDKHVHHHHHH
Protocol: as §1

PlexinA2-ECD-Fc [3] = target: T1, PlexinA2-ECD-Fc; experiment: ELISA, coated ECD-Fc, antibody 2777.778 ng/mL
Protocol: as §1

Human c-Met-Flis-Fc ECD [4] = target: T2, Human c-Met-Flis-Fc ECD; experiment: ELISA, coated ECD-Fc, antibody 2777.778 ng/mL
Protocol: as §1

RON-ECD-Fc = target: T3, RON-ECD-Fc (human, UniProt Q04912 25-957); experiment: ELISA, coated ECD-Fc, antibody 2777.778 ng/mL
T3 construct: extracellular domain; Bought reagent; not shown: Fc part of the bought fusion
T3 sequence (looked up): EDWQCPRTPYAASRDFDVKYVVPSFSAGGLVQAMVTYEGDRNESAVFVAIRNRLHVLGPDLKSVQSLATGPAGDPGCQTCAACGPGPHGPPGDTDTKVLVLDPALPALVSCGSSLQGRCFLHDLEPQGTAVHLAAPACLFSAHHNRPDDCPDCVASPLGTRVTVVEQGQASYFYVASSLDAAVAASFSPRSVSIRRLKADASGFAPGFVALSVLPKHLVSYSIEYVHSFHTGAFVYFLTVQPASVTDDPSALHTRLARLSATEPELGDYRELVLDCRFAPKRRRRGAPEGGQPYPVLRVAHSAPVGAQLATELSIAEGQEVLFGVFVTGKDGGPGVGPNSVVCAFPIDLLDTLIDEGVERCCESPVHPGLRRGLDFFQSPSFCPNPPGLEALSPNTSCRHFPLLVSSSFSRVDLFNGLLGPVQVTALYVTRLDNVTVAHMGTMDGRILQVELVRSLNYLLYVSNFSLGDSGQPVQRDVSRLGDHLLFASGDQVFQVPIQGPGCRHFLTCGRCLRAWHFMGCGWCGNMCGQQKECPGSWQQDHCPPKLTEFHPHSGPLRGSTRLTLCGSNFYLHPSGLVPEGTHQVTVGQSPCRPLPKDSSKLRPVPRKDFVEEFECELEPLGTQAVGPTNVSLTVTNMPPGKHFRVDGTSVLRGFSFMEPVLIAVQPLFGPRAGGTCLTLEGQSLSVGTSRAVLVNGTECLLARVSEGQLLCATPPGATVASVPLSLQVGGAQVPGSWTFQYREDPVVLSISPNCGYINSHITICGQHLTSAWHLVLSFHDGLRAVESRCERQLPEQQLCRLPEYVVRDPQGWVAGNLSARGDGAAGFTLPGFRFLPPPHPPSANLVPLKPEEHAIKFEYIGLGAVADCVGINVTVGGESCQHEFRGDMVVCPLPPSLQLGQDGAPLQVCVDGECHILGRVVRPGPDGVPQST
Protocol: as §1

PlexinA2-ECD-Fc [5] = target: T1, PlexinA2-ECD-Fc; experiment: ELISA, coated ECD-Fc, antibody 462.963 ng/mL
Human c-Met-Flis-Fc ECD [6] = target: T2, Human c-Met-Flis-Fc ECD; experiment: ELISA, coated ECD-Fc, antibody 462.963 ng/mL

Average A450 nm (PlexinA2-ECD-Fc [1]): 0.096 A450 nm
Average A450 nm (Human c-Met-Flis-Fc ECD [2]): 0.551 A450 nm
Average A450 nm (PlexinA2-ECD-Fc [3]): 0.094 A450 nm
Average A450 nm (Human c-Met-Flis-Fc ECD [4]): 4 A450 nm
Average A450 nm (RON-ECD-Fc): 0.088 A450 nm
Average A450 nm (PlexinA2-ECD-Fc [5]): 0.086 A450 nm
Average A450 nm (Human c-Met-Flis-Fc ECD [6]): 4 A450 nm
B1: C8-6 (antibody, human IgG2, kappa, V domains shown)
VH: QVQLVQSGAEVKKPGASVKVSCKASGYTFTDYYMHWVRQAPGQGLEWMGRVNPNRGGTTYNQKFEGRVTMTTDTSTSTAYMELRSLRSDDTAVYYCARTNWLDYWGQGTTVTVSS
VL: DIQMTQSPSSLSASVGDRVTITCSVSSSVSSIYLHWYQQKPGKAPKLLIYSTSNLASGVPSRFSGSGSGTDFTLTISSLQPEDFATYYCIQYSGYPLTFGGGTKVEIKR
notes: Called IgG4, kappa; also called Mab C8-6
